Values quoted from earlier work in PMC7650819.

Assays:
[1] = molecular target: thrombin (human plasma) (Homo sapiens) (UniProt P00734+P00734); assay: literature value; conditions: AIR; ABB: 50 mM Tris-HCl, 140 mM NaCl, 1 mM MgCl2, 1% BSA, 0.05% Triton X-100, pH 7.4, overnight at 4 °C; aptamers refolded in 5 mM Tris-HCl, 1 M NaCl, 0.5 mM …
TGF-β1 (Homo sapiens) = TGF-β1 (Homo sapiens) (UniProt P01137); assay: literature value; conditions: DNA with phosphorothioates at positions marked by asterisks: CGCTCGGCTTCACGAGATTCGTGTC*GTTGTGTC*C*TGTA*C*C*C*GC*C*TTGA*C*C*A*GTC*A*C*TC*TA*GA*GC*A*TC*C*GGA*C*TG …; AIR; ABB: 50 mM Tris-HCl, 140 mM NaCl, 1 mM MgCl2, 1% BSA, 0.05% Triton X-100, pH 7.4, overnight at 4 °C; aptamers refolded in 5 mM Tris-HCl, 1 M NaCl, 0.5 mM E
Chain of TGF-β1 (Homo sapiens) (P01137 279-390): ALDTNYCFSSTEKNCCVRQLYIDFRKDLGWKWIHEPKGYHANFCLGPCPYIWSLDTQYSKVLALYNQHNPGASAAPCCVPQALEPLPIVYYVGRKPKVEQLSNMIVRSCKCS

| Sequence | Kd [1] [µM] | Kd (TGF-β1 (Homo sapiens)) [µM] |
| --- | --- | --- |
| TTTTTTTTTTTTTTTTTTTTAGTCCGTGGTAGGGCAGGTTGGGGTGACT [Thrombin 29-mer aptamer] | 0.0005 | – |
| TTTTTTTTTTTTTTTTTTTTCGCTCGGCTTCACGAGATTCGTGTCGTTGTGTCCTGTACCCGCCTTGACCAGTCACTCTAGAGCATCCGGACTG [TGF-β1 thioaptamer] | – | 0.09 |
| TTTTTTTTTTTTTTTTTTTTGGTTGGTGTGGTTGG [Thrombin 15-mer aptamer] | 0.1 | – |
